The values that follow come from paper PMC6125681, “Stability of local secondary structure determines selectivity of viral RNA chaperones”.

Values joined by “and” are separate entries in the source; they are usually repeats but may differ in a detail not shown here. Equal values may be shown once.

In series [1] the target is T1, σNS (Avian reovirus (strain not given)) (UniProt W8NR44).
T1 sequence: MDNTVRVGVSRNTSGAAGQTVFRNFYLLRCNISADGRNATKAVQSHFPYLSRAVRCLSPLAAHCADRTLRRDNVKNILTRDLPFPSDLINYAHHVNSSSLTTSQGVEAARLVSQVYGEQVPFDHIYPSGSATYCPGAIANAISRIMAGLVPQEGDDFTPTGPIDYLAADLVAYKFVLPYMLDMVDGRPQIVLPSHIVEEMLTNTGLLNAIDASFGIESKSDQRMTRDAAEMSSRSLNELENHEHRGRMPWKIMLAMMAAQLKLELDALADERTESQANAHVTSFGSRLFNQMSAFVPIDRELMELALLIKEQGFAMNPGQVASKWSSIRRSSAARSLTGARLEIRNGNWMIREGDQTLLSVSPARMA
As to the kind of experiment: fluorescence anisotropy.

Series [2] deals with avian reovirus (ARV) σNS (avian reovirus). As to the kind of experiment: native MS; nanoESI-IMS-MS of σNS–RNP complex (σNS saturated with unstructured 20mer RNA), 20 μM, 200 mM ammonium acetate pH 7.6.
Series [3] has the same target. As to the kind of experiment: native MS; nanoESI-IMS-MS of σNS apoprotein, 20 μM, 200 mM ammonium acetate pH 7.6; no RNA.
For series [4] the target is unchanged. The series is described as above. The source holds these as a separate data set.
Series [5] concerns the target T2, NSP2 (Rotavirus (strain  in …, UniProt A2T3N6 1-317)).
T2 sequence: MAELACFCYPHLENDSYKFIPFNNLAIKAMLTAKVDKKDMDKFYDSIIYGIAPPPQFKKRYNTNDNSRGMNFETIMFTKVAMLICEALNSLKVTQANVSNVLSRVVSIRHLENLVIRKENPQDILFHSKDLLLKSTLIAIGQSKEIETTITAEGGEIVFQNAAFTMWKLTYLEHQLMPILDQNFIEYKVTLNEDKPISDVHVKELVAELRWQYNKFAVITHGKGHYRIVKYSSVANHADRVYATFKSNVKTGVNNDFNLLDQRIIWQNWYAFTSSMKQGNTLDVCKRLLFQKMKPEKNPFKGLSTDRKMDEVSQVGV
The series is described as follows: FCCS; multiple RNAs per octamer. The settings on record: protein: recombinant; chain copies: 8; label: Cy3 or Cy5 (same string printed for both); unstructured; text calls the two labelled RNAs distinct non-complementary.

Series [6] addresses T2, NSP2. The series is described as follows: single-pair FRET; 25 nM protein; binds folded and unfolded RNA. The settings on record: protein: recombinant; chain copies: 8; Methods state the reverse; hairpin, -8.9 kcal/mol.
The target in series [7] is T2, NSP2. As to the kind of experiment: fluorescence anisotropy; 10 mM MgCl2. The settings on record: protein: recombinant; chain copies: 8; label: 5' AlexaFluor488; unstructured, MFE 0. (Polarisation of emitted light reports the rotation of a fluorescent probe.)
The target in series [8] is T2, NSP2. The series is described as follows: fluorescence anisotropy; no Mg2+. The settings on record: protein: recombinant; chain copies: 8; label: 5' AlexaFluor488; unstructured, MFE 0.
Series [9] addresses T2, NSP2. As to the kind of experiment: fluorescence anisotropy; no Mg2+; one value given for all three RNAs. The settings on record: protein: recombinant, chain copies: 8, label: 5' AlexaFluor488, hairpin.

A word on the Kd: it is the constant that tells how readily two partners part at equilibrium. In turn, CUUCUUUCGAAAUUAAGAAG [metastable 20mer] showed a dissociation constant Kd in [1] of 24 nM.

In [1], “CUUUUCAAGACAUGCAACAA [unstructured 20mer]” showed a Kd of 37 nM and a binding signal (fold Kd increase vs no Mg2+) of 1.5.

Take “UCUUUGCAAACAUGCAAAGA [stable 20mer hairpin]”: the Kd in series [1] worked out at 137 nM.

For orientation: stoichiometry N means the number of molecules, sites or subunits per partner or assembly. Take “avian reovirus (ARV) σNS (natural protein)”: the stoichiometry N in series [2] was 8 and 6; in series [3], 6; in [4], 8.

B1: 17mer (S11-derived) (ssRNA)
RNA: UUCCUUCUAUUUCUUCU
With B1, the binding result in series [5] is “binds”.

B2: dual-labelled 36mer stem-loop (structured_RNA)
RNA: AAAUCUUUGCAAACUAUCCAAUCCAUGCAAAGAUAA
In the case of B2, the binding result in [6] is given as “binds”.

B3: unstructured 20mer (ssRNA)
RNA: CUUUUCAAGACAUGCAACAA
Consider B3, for which the figures for the Kd in series [7] and in series [8] were 28 ± 1.48 nM and 20.7 ± 1.67 nM, respectively.

B4: metastable 20mer (structured_RNA)
RNA: CUUCUUUCGAAAUUAAGAAG
For B4, the Kd in [9] (-3.8 kcal/mol) was roughly 20 nM.

B5: stable 20mer hairpin (structured_RNA)
RNA: UCUUUGCAAACAUGCAAAGA
Regarding B5, the Kd in series [9] (-8.1 kcal/mol) is roughly 20 nM.
